Assay results reported in publication PMC11446229.

Molecular target: T1, CyaY, the frataxin homolog of Escherichia coli (E. coli), P27838
T1 chain: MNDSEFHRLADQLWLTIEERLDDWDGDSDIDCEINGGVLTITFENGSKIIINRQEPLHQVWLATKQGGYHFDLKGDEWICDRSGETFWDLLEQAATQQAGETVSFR
Assay: native MS; CyaY above 35 uM in the titration of SufSE; charge states of CyaY multimers (Fig. S4)
Conditions: remark: other sources report otherwise

B1: CyaY, the frataxin homolog of Escherichia coli, P27838 1-106 (natural protein)
chain: T1 chain
stoichiometry N: 2 to 3
